The values that follow come from paper PMC9481538, “The interaction between LC8 and LCA5 reveals a novel oligomerization function of LC8 in the ciliary-centrosome system” (Scientific Reports, 2022).

Series [1] is described as follows: negative staining transmission electron microscopy of sLCA5-LC8 complexes. The class given is physicochemical. As for the experimental part: For TEM negative staining experiments, a JEOL JEM-1011 (JEOL Ltd., Tokyo, Japan) electron microscope was used. The purified LCA5-LC8 complexes or LC8 or LCA5 forms alone were put together by using LCA5-WT or the single or double mutants at 30 μM and LC8 at 150 μM concentration in a buffer of 20 mM Tris 70 mM NaCl, pH 7.4, and incubated at 37 °C for 1 h. The complexes were diluted to a final 0.2 mg/ml concentration in the buffer and applied to 300 mesh formvar/carbon-coated copper grids (SPI Inc., USA). After 2 min of incubation the surplus was removed by filter paper and 1% uranyl acetate was applied for 1 min as negative staining. Images were taken around the middle of the grid at 5000, 50,000, 150,000 and 300,000-fold magnification. The collected data was analyzed by Fiji ImageJ software, and the statistical analysis was carried out in Origin 8 software.

For series [2], the target named is T1, LC8 (Homo sapiens, UniProt Q96FJ2).
T1 construct: 6xHis (N); made in house; host or cells: E. coli BL21 (DE3) Rosetta
T1 sequence (Q96FJ2 whole entry): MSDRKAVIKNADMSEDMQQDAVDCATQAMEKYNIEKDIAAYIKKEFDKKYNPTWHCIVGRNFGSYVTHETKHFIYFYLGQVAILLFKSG
Briefly: composition of complexes of LC8 binding partners (Supplementary Table S1). Conditions: this paper's constructs. The source says:
Number of LC8 Number of Ratio of LCA5
LC8 binding monomeric binding monomeric LC8 in monomers to LC8
Gene name sites partners in complex complex monomers
Supplementary Table S1. Stoichiometries of various LC8 binding partners in complex with LC8. Known LC8 binding partners according to literature data always form dimers upon LC8 binding. The stoichiometry is basically 1:1 in case of one LC8 binding site,where 2 monomeric partners are dimerized by binding one dimeric LC8. This ratio could increase up to 1:11 in case of ASCIZ where the dimeric ASCIZ possibly could bind 11 LC8 dimers in […]
occupied. According to our ITC and CD spectroscopy data, we proposed a very different binding model where the LCA5 forms likely […] alone and LC8 could interconnect this dimerized, moreover the possible binding sites are not fully occupied. […]
and 1:1 ratio case of single mutant LCA5 construct where one binding site presented and in case of wild type LCA5 where 2 binding sites presented, respectively.

Series [3] in a line: CD thermal denaturation. Type of series: physicochemical. Conditions: CD at 222 nm, 10–80 °C; for melting temperature Tm: 1 °C/min, two-state fit, without or with LC8 as label shows; for increase in melting temperature on LC8 binding: sLCA5 in complex with LC8 vs without. As for the experimental part: (§1) CD experiments were carried out on a Jasco J-810 spectropolarimeter using a 1 mm quartz cuvette. For the spectra of the individual constructs, 8 scans were recorded and averaged between 200 nm or 190 nm and 260 nm (in continuous scanning mode, data pitch: 0.2 nm, scanning speed: 50 nm/min, response: 2 s, bandwidth: 2 nm). sLCA5-WT and the mutants were measured at 0.1 mg/ml concentration. 1.2 μM LCA5 and 6 μM LC8 were complexed and analyzed. The spectra of LC8 at a concentration of 6 μM was recorded under the same experimental conditions as described before and subtracted from the individual CD spectra of the sLCA5-LC8 complexes. The baseline subtracted data were evaluated using the BeStSel web-server (http://bestsel.elte.hu/index.php)[46],[47]. Thermal denaturation experiments were recorded at 222 nm between 10 and 80 °C using 1 °C/min heating rate. The thermal denaturation profile was fitted according to the Gibbs–Helmholtz equation assuming a two-state model as described by Shih et al[48]. After fitting, the curves were normalized by the following equation. y=-m^∘-An-T∗mn/Ad-An+md-mnT-1 where y is the ratio of native and unfolded state, An and Ad are the initial values of the Gibbs–Helmholtz equation belong to the native and denatured state, mn and md are the slopes belong to the An and Ad values, m° is the measured CD value in millidegree and T is the temperature in °C.

Series [4] relates to GST-fused LC8. Nature of the series: GST pull-down of LC8 and sLCA5. Type of series: binding. As to conditions: GST-LC8 bait, MBP-, 6x-His-fused sLCA5 prey, PBS, 1 mM DTT, room temperature; result in words. As for the experimental part: For the pull-down experiments, GST-fused LC8 was used as bait, and MBP-, 6x-His-fused LCA5 variants as prey. For controls, GST and MBP were used. Proteins were expressed in 100 ml cultures of E. coli BL21 (DE3) Rosetta cells as described above. Cells were harvested, resuspended in 5 ml PBS supplemented with 1 mg/ml lysozyme and 1 mM DTT, sonicated and clarified by centrifugation. 20 μl of Glutathione Sepharose 4B (Macherey–Nagel) (75%) resin was used for each experiment. Baits were incubated with the resin for 1 h at room temperature, then washed with PBS supplemented with 1 mM DTT. Prey proteins were added and incubated for one hour. The beads were washed and eluted by boiling in a 2 × SDS sample buffer and analyzed in tricine SDS page according to the protocol of Schagger et al[43].

Series [5] is described as follows: analytical gel filtration. The class given is physicochemical. As for the experimental part:
(§2) For analytical gel filtration a Superose 6 Increase 10/300 (Cytiva) was used with an effective resolution between 5–5000 kDa range and a void volume above 5000 kDa. The column was equilibrated in DPBS supplemented with 200 μM TCEP. The calibration curve was fitted on the chromatogram of gel filtration standard mix (BioRad) with the addition of Dextran Blue to determine the void volume. 100 μl of LCA5 purified protein or LCA5-LC8 complex was injected at the concentration of 30 μM for LCA5 and 150 μM for LC8, with a flow rate of 500 μl/min immediately or after 60 min of incubation at 37 °C. For densitometric analysis, fractions were collected and 200 μl of samples were precipitated in 1.8 ml 96% ethanol at − 80 °C for 2 h. The samples were centrifugated for 30 min at 14,000 g, and dissolved in 15 μl of SDS sample buffer. 10 μl of each sample was run on Tricine-SDS gel. The calibration of the densitometry was performed on samples of known molar ratio of sLCA5 construct and LC8 (see the original gel used for calibration on Suplementary Fig. S16). Data evaluation was performed by using Origin 8 software and Fiji ImageJ software.
In general terms: Size exclusion chromatography separates by hydrodynamic size, large species first.

The nature of series [6]: CD spectroscopy, helical content. Type of series: physicochemical. As for the experimental part: as §1, with “°C. […]” for “°C.”
Series [7] addresses T1, LC8. Briefly: isothermal titration calorimetry, sLCA5 fragments titrated with LC8. Type of series: binding. As to conditions: PBS pH 7.4, 1 mM TCEP, 37 °C. As for the experimental part: LC8 and MBP-fused LCA5 constructs were prepared in PBS supplemented with 1 mM TCEP. Before measurement, protein samples were dialyzed overnight in PBS pH 7.4 (Orange Scientific, OrDial D14 membrane). Peptides were diluted from stock with the buffer used for dialysis. The concentration of samples was determined based on absorbance at 280 nm in the case of proteins, and 205 nm for the peptide. Experiments were performed using MicroCal PEAQ-ITC (Malvern Panalytical), LCA5 peptides were measured at 25 °C, proteins were analyzed at 37 °C. Lebercilin peptide was injected into the cell 18 times 2 μl volumes, with 5 min timing between injections. In case of the protein, LCA5 was placed in the sample cell, and LC8 was injected during 37 injections, 1 μl each. The results were evaluated using MicroCal PEAQ-ITC Analysis Software.
A general note: ITC needs no label: the signal is the heat of the interaction.

For series [8], the target named is T1, LC8. Briefly: SDS-PAGE densitometric analysis of gel filtration fractions (sLCA5:LC8 molar ratio). Type of series: binding. Conditions: SDS-PAGE densitometry; result in words. As for the experimental part: as §2

B1: sLCA5-WT: truncated LCA5 96–430 fused to an N-terminal MBP tag (protein)
chain: DTDLVTKRILSARLLKINELQNEVSELQVKLAELLKENKSLKRLQYRQEKALNKFEDAENEISQLIFRHNNEITALKERLRKSQEKERATEKRVKDTESELFRTKFSLQKLKEISEARHLPERDDLAKKLVSAELKLDDTERRIKELSKNLELSTNSFQRQLLAERKRAYEAHDENKVLQKEVQRLYHKLKEKERELDIKNIYSNRLPKSSPNKEKELALRKNAACQSDFADLCTKGVQTMEDFKPEEYPLTPETIMCYENKWEEPGHLTLDLQSQKQDRHGEAGILNPIMEREEKFVTDEELHVVKQEVEKLEDEWEREELDKKQKEKASLLER
modifications: left off: MBP, N-terminal, kept | His6, C-terminal, kept
notes: truncated LCA5 96–430 fused to an N-terminal MBP tag
Turning to B1, the “measured diameter median of spherical complexes” value in series [1] (30 μM sLCA5 + 150 μM LC8, 37 °C 1 h, 20 mM Tris 70 mM NaCl pH 7.4) is given as ~ 39 nm. In addition, in series [1] (TEM diameters with LC8, significant by two sample t-test, p = 0.05), the “increase in size of complexes vs sLCA5-ΔCQS complexes” value is 20%. Further, the LC8 binding sites in series [2] is given as 2. Moreover, in series [3], the “melting temperature Tm” value was 41,1 °C and the “increase in melting temperature on LC8 binding” value is ~ 5 °C. Also, the “interaction with LC8 (GST pull-down)” value in series [4] is reported as “can bind LC8”. Also, the “estimated molar mass (gel filtration)” value in series [5] (Superose 6 Increase 10/300, DPBS, 200 μM TCEP, void volume above 5000 kDa, listed as wild-type LCA5 construct) was ~ 610 kDa. Further, the “void fraction (higher order oligomers)” value in series [5] (gel filtration void volume, result in words) is given as “remarkable increase in the void volume fraction”. In series [5] (void fraction, prolonged incubation with LC8), the “increase of the difference between incubated wild type and sLCA5-ΔCQS complexes” value was ~ 3.5 fold. The “stronger propensity to form higher order oligomers vs sLCA5-ΔCQS” value in series [5] (void volume fraction size, with LC8 in fivefold molar excess) is ~ 20%. Moreover, the “void fraction increment on incubation” value in series [5] (with LC8, 60 min at 37 °C vs non-incubated complex) worked out at 324%. In addition, the “molar ellipticity curve upon addition of LC8” value in series [6] (20 °C, LC8 in fivefold molar excess, vs sLCA5-WT without LC8, result in words) is recorded as “remained the same”. Besides, the “helical structures preserved at higher temperatures” value in series [6] (CD, BeStSel, 20 vs 40 °C, in the presence of LC8, LC8 and MBP-tag subtracted) turned out to be 80%. Moreover, in series [7] (ITC, MBP-fused sLCA5 titrated with LC8), the “− TΔS” value was 3.28 kcal/mol.

B2: sLCA5-ΔCQS-ΔVQT: double mutant sLCA5, both LC8 binding motifs mutated (protein)
chain: DTDLVTKRILSARLLKINELQNEVSELQVKLAELLKENKSLKRLQYRQEKALNKFEDAENEISQLIFRHNNEITALKERLRKSQEKERATEKRVKDTESELFRTKFSLQKLKEISEARHLPERDDLAKKLVSAELKLDDTERRIKELSKNLELSTNSFQRQLLAERKRAYEAHDENKVLQKEVQRLYHKLKEKERELDIKNIYSNRLPKSSPNKEKELALRKNAAAAADFADLCTKGAAAMEDFKPEEYPLTPETIMCYENKWEEPGHLTLDLQSQKQDRHGEAGILNPIMEREEKFVTDEELHVVKQEVEKLEDEWEREELDKKQKEKASLLER
modifications: left off: MBP, N-terminal, kept | His6, C-terminal, kept
As to B2, in series [3], the “melting temperature Tm” value was 40,7 °C and the “increase in melting temperature on LC8 binding” value is on record as “no similar increase was observed”. Moreover, in series [4], the “interaction with LC8 (GST pull-down)” value is “abolished the interaction with LC8”. Besides, the “LC8 content of fraction” value in series [8] is “unable to bind LC8”. Moreover, in series [7] (titrated with LC8, result in words), the “measurable interaction with LC8 (ITC)” value is “did not show any measurable interaction”.
